# Results as given in patent US20260125649A1, “MEDIUM COMPOSITION AND METHOD FOR CULTURING MESENCHYMAL STEM CELLS” (ACADEMIA SINICA, priority 2018, published 2026).
# Where “and” joins values, the source holds several entries; their conditions need not be identical. Equal entries are not always repeated. Entries after “also recorded” stand apart in the source; their conditions may differ.
# Experiments:
# [1] = tested on: human bone marrow-derived MSCs; assay: MSC doubling time (cell number counted); assay type: cell-based
# Description: The proliferation of MSCs was examined by measuring doubling time. MSCs were treated with EpEX (3 μg/mL) for 24 and 48 h. Cell number was counted and then doubling time was calculated. MSCs were treated with EpEX (3 μg/mL) for the indicated times. After treatment, protein expression of cell cycle regulators (cyclin D1, cyclin D2, cyclin D3, cyclin E1, CDK4 and CDK9) and pluripotency factors (Oct4, Sox2, c-Myc, and Lin28) was examined by Western blotting.
# All experiments with primary human cells were conducted in accordance with relevant guidelines and regulations. Human primary bone marrow mesenchymal stem cells (BMMSCs) were purchased from LONZA and were cultured with Dulbecco's Modified Eagle Media-low glucose (DMEM-LG) medium containing 16.6% FBS, 1 mM L-glutamine (Invitrogen), 100 μg/ml Penicillin/Streptomycin (Gibco). All cells were cultured at 37° C. and 5% CO2. All experiments on primary cells were performed within 10 passages.
# We used human bone marrow-derived MSCs to study the effects of EpEX and first investigated whether EpEX promotes cell proliferation of MSCs. […] Next, we examined the effect of EpEX on cell cycle progression by flow cytometry with propidium iodide (PI) staining. […] EpCAM has been reported to enhance cell cycle progression through upregulation of the proto-oncogene c-Myc and cyclin A/E (Munz et al., 2004). […]
# Oct4, Sox2, c-Myc, Lin28 = assay: qPCR of pluripotency factors in MSCs; assay type: cell-based, human; settings: EpEX treatment
# Excerpt: The expression of let-7 was detected by qPCR. MSCs expressing EGFR shRNA, STAT3 shRNA or Lin28b shRNA were stimulated with EpEX. The expression of let-7 was detected by qPCR. […] Expression of pluripotency factors (Oct4, Sox2, c-Myc and Lin28) was examined by qPCR. MSCs were transfected with a let-7 mimetic, and then stimulated with EpEX. Protein levels of pluripotency factors (Oct4, Sox2, c-Myc, and Lin28) were examined by Western blotting.
# Total RNA was extracted using TRI reagent (Invitrogen, CA, USA), and 5 μg of total RNA was reverse transcribed using oligo (dT) primer (Fermentas, Glen Burnie, MD, USA) with SuperScript III reverse transcriptase (Invitrogen). Quantitative real time RT-PCR (qPCR) was performed on cDNA using the Light Cycler 480 SYBR Green I Master kit (Roche Applied Science, Indianapolis, IN) and the LightCycler480 System (Roche Applied Science). The gene expression levels of each sample were normalized to the expression levels of glyceraldehyde 3-phosphate dehydrogenase (GAPDH).
# EGFR (Tyr845) = biological target: T1, EGFR (Tyr845) (Homo sapiens, UniProt P00533); assay: EGFR phosphorylation (antibody array, Western blotting); assay type: cell-based; settings: MSCs treated with the substance (EpEX 3 μg/mL)
# T1 construct: host or cells: human primary bone marrow mesenchymal stem cells (BMMSCs)
# Description: Phospho-EGFR (Tyr845) was detected by Western blotting. […] After treatment, cell cycle progression was investigated by flow cytometry with PI staining. Fraction of cells in each phase (G1, S, G2/M) of the cell cycle was evaluated. Cells that expressed EGFR shRNA or shLuc were treated with EpEX for 18 h. After treatment, cell cycle progression was investigated by flow cytometry with PI staining. Fraction of cells in each phase (G1, S, G2/M) of the cell cycle was evaluated. […] The protein expression of cell cycle regulators (cyclin D1, cyclin D2, cyclin E1) and pluripotency factors (Oct4, Sox2, c-Myc, Lin28) was examined by Western blotting. MSCs expressing EGFR shRNA were stimulated by EpEX. After treatment, the protein expression of cell cycle regulators (cyclin D1, cyclin E1, CDK4 and CDK9) and pluripotency factors (Oct4, in Sox2, c-Myc, and Lin 28) was examined by Western blotting. […] After treatment, the gene expression of pluripotency factors (Oct4, Sox2, c-Myc, Lin28 and EpCAM) was examined by qPCR.
# The phosphorylation of EGFR (Tyr845) and STAT3 (Tyr705) were examined by Western blotting with specific antibodies.
# Western blotting was performed as previously described (Takahashi et al., 2003). Cells were lysed in lysis buffer (150 mM NaCl, 50 mM Tris-HCl (pH 7.4), 1% Nonidet P-40), containing a protease inhibitor mix (Roche Applied Science). Nuclear fractions and cytoplasmic fractions were separated by the Nuclear/Cytosol Fractionation Kit according to the manufacturer's instructions (BioVision Inc., Milpitas, CA, USA). Protein samples were separated by SDS-PAGE under denaturing conditions, and transferred to a PVDF membrane (Millipore). To probe for pluripotency markers, membranes were incubated with the indicated antibodies against Oct4 (1:1000, Abcam, Cambridge, UK), Nanog (1:1000, Genetex), Lin28 (1:1000, Genetex) or Sox2 (1:1000, Genetex). The CDK and cyclin antibodies were from the CDK and Cyclin Antibody Sampler Kits (Cell Signalling Technology, #9868 and #9869 respectively), including antibodies against cylin D1, D2, E1, and CDK4, CDK9 (1:1000). […]
# TACE = TACE activity assay in MSC lysates; assay type: cell-based, human; settings: EpEX-stimulated MSCs
# Description: FIG. 9. EpEX induces the phosphorylation and activity of TACE and γ-secretase. MSCs were stimulated by EpEX for the indicated times, and the activity of TACE and γ-secretase were detected. MSCs were stimulated by EpEX (3 μg/mL) for the indicated times. Western blot analysis was performed to detect the phosphorylation of TACE and Presenilin 2.
# ADAM17 activity was measured using the InnoZyme ADAM17 activity kit (Calbiochem). In brief, cell lysates were harvested and loaded into a TACE antibody-coated plate. After 1 h incubation, the lysate was removed and the plate was washed twice. Substrate was added into each well for 5 h at 37° C. After incubation, the fluorescence signal of the reaction product was detected at excitation of 324 nm and emission of 405 nm. For the detection of γ-secretase activity, cell lysates were extracted and 500 μg protein was used. γ-secretase activity was detected by γ-secretase substrate (35 μM).
molecule,measurement,setting,value
"EpEX: extracellular domain of human EpCAM, 265 amino acids in length (SEQ ID NO: 2) (protein, listed as Homo sapiens) MAPPQVLAFGLLLAAATATFAAAQEECVCENYKLAVNCFVNNNRQCQCTSVGAQNTVICSKLAAKCLVMKAEMNGSKLGRRAKPEGALQNNDGLYDPDCDESGLFKAKQCNGTSMCWCVNTAGVRRTDKDTEITCSERVRTYWIIIELKHKAREKPYDSKSLRTALQKEITTRYQLDPKFITSILYENNVITIDLVQNSSQKTQNDVDIADVAYYFEKDVKGESLFHSKKMDLTVNGEQLDLDPGQTLIYYVDEKAPEFSMQGLK",MSC doubling time,"[1]; P3, EpEX 3 μg/mL (0 μg/mL: 17.6 ± 0.3 h)",16.1 ± 0.1 h
same,MSC doubling time,"[1]; P9, EpEX 3 μg/mL (0 μg/mL: 38.2 ± 1.7 h)",22.5 h and 22.5 ± 0.4 h
same,expression of the gene for Oct4,"Oct4, Sox2, c-Myc, Lin28",can induce
same,phosphorylation of EGFR at Tyr845,EGFR (Tyr845),induced EGFR phosphorylation at Tyr845 in a time-dependent manner; also recorded: can induce
same,activation of TACE,TACE,induced
